Experiments:
Conditions in all cases: remark: other sources report otherwise
[1] = biological target: T1, A Proliferation Inducing Ligand (APRIL) (human), O75888; test: cell binding titration by flow cytometry; soluble APRIL varied to 10 nM on cells displaying the BCMA clone
T1 chain: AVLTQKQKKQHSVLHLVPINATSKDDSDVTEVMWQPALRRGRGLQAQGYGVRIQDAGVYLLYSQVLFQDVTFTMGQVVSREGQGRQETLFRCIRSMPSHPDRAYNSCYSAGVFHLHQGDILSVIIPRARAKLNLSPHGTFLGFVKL

BAFF = test: cell binding titration by flow cytometry; soluble BAFF varied to 10 nM on cells displaying the BCMA clone; Kd and BP printed as N.D
[2] = biological target: T1, A Proliferation Inducing Ligand (APRIL) …; test: binding assay of FIG. 1 (flow cytometry titration, one-site specific binding fit; format not stated); FIG. 1 legend, unit printed pM
[3] = biological target: T1, A Proliferation Inducing Ligand (APRIL) …; test: binding assay of FIG. 1 (flow cytometry titration, one-site specific binding fit; format not stated); Example 4 results, unit printed µM
[4] = biological target: T1, A Proliferation Inducing Ligand (APRIL) …; test: flow cytometry titration of soluble APRIL on yeast displaying BCMA; one site specific binding fit; A.U. from the axis 'Cell binding (A.U.)'
[5] = biological target: T1, A Proliferation Inducing Ligand (APRIL) …; test: cell binding titration by flow cytometry; soluble APRIL varied to 10 nM on cells displaying the BCMA clone; BP is not defined in the filing
[6] = biological target: T1, A Proliferation Inducing Ligand (APRIL) …; test: flow cytometry titration of soluble APRIL (about 0.0005 to 10 nM) on yeast displaying BCMA; one site specific binding fit, nM is the unit of the concentration axis

- Bmax [1]: 6560 A.U.
- Kd [1]: 0.025 nM
- Bmax (BAFF): 78.3 A.U.
- Kd [2]: 0.032 nM
- Kd [3]: 0.032 nM
- Bmax [4]: 9930 A.U.
- BP [5]: 263
- Kd [6]: 0.0323 nM
B1: wild type human BCMA extracellular domain (sBCMA WT ECD), Q02223 1-54 (receptor)
chain: MLQMAGQCSQNEYFDSLLHACIPCQLRCSSNTPPLTCQRYCNASVTNSVKGTNA

— US20240294604A1
